To fix the notation:
T1: DR3 on cells (DR3 stable cell line; DR3 on human PBMC T cells) (human, UniProt Q93038 25-417)
T1 construct: whole, on cells; Also used for the DR3 of hPBMC T cells in the NF-kB assays; also called 세포 표면에서 발현된 DR3; DR3 natural form
T1 sequence (looked up): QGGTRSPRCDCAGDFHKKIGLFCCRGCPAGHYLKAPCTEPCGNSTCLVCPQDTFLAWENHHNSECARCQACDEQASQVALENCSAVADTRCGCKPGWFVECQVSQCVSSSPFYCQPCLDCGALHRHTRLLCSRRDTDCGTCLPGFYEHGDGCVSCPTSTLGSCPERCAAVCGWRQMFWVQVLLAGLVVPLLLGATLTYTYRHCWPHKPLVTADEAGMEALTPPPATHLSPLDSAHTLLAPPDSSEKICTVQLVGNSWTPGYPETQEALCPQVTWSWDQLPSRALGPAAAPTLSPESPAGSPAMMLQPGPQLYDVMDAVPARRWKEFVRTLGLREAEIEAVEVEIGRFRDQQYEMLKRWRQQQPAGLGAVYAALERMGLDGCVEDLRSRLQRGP

B1: 항-DR3 4-4 항체 (4-4 mAb) (antibody, V domains shown)
VH: EVQLVESGGGLVKPGGSLRLSCAASGFTFSDYYMSWIRQAPGKGLEWVSYISSSSSYTNYADSVKGRFTISRDNAKNSLYLQMNSLRAEDTAVYYCASNVDTAMVGAFDIWGQGTLVTVS
VL: DIEMTQSPSSVSASVGDTVTITCRASQHISNWLAWYQQKPGQAPKFLIYTASNLQSGVPSRFSGSGYGTDFTLTISGLQPEDFATYYCQQADSFPLTFGGGTKVDIK
notes: also called clone 4-4; clone 4-4 IgG1
B2: 6-2 mAb (antibody, V domains shown)
VH: QVQLVQSGGGLVQPGGSLRLSCAASGFTFSSYSMNWVRQAPGKGLEWVSYISSSSSTIYYADSVKGRFTISRDNAKNSLYLQMNSLRAEDTAVYYCARWDGYCSGGSCYSGMDYWGQGTLVTVS
VL: not shown
notes: Human monoclonal IgG; also called clone 6-2; clone 6-2 IgG1
B3: 6-15 mAb (antibody, V domains shown)
VH: QVQLVQSGGGLVQPGGSLRLSCAASGFTFSSYSMNWVRQAPGKGLEWVSYISSSSSTIYYADSVKGRFTISRDNAKNSLYLQMNSLRAEDTAVYYCARWDGYCSGGSCYSGMDYWGQGTLVTVS
VL: DIEMTQSPSSLSASVGDKVTITCQASQDISNYLNWYQQKPGKAPKLLIYDASNLETGVPSRFSGSGSGTDSTFTISSLQPEDIATYYCQQYDNLPLTFGGGTKVEIK
notes: Human monoclonal IgG (detected with anti-human IgG Fc); also called clone 6-15

These results are taken from patent KR20230175116A (dated 2023).

The assay has as its target T1, DR3 on cells (DR3 stable cell line; DR3 …). Put plainly: FACS, DR3 stable cell line, 2 ug/ml mAb, anti-human IgG PE. In general terms: In flow cytometry, cells or beads pass a laser one at a time.
Consider B1, for which the binding result is “binds”.

Regarding B2, the binding result is given as “binds”.

Turning to B3, the binding result is “binds”.
